Source: patent publication US20110243899A1 (NATIONAL UNIVERSITY CORPORATION CHIBA UNIVERSITY, published 2011)

Tests used:
[1] = molecular target: Myc-tagged Frz8CRD (Frz8CRD-Myc), cysteine-rich domain of Frizzled 8 (Mus musculus (Mouse)) (UniProt Q61091); experiment: liquid-phase binding assay with immunoprecipitated Frz8CRD-Myc, Scatchard plot
[2] = molecular target: T1, Myc-tagged Frz8CRD (Frz8CRD-Myc), cysteine-rich domain of Frizzled 8 (UniProt Q61091 28-151); experiment: radioligand saturation binding (Scatchard)
T1 chain: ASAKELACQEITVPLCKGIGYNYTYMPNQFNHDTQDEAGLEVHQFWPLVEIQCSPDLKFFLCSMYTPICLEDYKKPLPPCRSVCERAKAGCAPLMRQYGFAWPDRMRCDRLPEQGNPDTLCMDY

[3] = molecular target: T2, Myc-tagged LRP6N (LRP6N-Myc), extracellular portion of LRP6 (UniProt O75581 20-1370); experiment: radioligand saturation binding (Scatchard); Kd2, low-affinity site
T2 chain: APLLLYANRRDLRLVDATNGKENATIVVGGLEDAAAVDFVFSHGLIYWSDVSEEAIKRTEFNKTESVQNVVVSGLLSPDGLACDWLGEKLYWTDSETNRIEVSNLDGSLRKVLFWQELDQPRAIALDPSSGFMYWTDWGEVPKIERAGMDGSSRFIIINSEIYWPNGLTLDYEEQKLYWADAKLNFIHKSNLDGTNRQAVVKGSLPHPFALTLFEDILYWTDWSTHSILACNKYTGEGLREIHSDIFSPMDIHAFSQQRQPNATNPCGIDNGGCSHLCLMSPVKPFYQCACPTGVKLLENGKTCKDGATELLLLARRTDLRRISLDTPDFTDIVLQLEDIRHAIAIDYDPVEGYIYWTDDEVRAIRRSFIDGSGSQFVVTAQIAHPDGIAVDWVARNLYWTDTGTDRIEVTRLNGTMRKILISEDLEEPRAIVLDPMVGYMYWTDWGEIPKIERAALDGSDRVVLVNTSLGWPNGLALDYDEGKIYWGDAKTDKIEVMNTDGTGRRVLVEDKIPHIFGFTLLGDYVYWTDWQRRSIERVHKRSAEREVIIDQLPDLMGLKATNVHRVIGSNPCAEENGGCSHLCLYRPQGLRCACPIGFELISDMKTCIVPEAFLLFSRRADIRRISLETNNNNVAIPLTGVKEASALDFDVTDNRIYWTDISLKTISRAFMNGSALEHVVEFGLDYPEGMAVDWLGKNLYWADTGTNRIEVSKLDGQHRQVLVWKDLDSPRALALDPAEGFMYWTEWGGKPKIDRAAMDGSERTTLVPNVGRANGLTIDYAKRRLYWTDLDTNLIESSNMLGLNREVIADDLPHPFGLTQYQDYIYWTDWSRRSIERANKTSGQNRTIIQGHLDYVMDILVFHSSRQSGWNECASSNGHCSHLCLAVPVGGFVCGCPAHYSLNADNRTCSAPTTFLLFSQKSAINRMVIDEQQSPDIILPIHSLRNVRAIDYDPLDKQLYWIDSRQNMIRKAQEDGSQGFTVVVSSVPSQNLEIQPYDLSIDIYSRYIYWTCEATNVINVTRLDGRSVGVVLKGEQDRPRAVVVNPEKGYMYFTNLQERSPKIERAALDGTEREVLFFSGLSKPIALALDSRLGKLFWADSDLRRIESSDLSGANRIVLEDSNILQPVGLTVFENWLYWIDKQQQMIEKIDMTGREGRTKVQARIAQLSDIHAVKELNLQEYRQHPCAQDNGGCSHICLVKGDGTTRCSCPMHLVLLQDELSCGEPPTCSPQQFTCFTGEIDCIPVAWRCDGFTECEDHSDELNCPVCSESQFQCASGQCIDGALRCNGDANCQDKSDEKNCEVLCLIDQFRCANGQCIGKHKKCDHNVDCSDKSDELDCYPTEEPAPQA

[4] = molecular target: T2, Myc-tagged LRP6N (LRP6N-Myc), …; experiment: radioligand saturation binding (Scatchard); Kd1, high-affinity site
[5] = molecular target: T3, Myc-tagged LRP6N (LRP6N-Myc), extracellular portion of LRP6 (UniProt O75581 20-1370, limits assumed); experiment: IP with anti-Myc antibody, immunoblot with anti-V5 antibody
T3 construct: extracellular domain; Produced in conditioned medium of 293 cells; not shown: Myc tag
T3 sequence (looked up): T2 chain
Protocol: The interaction was assessed by allowing LRP6N-Myc to react with each V5-tagged IGFBP, and performing immunoprecipitation (IP) with an anti-Myc antibody and subsequent immunoblotting (IB) with an anti-V5 antibody (upper panel), and immunoprecipitation (IP) with an anti-V5 antibody and subsequent immunoblotting (IB) with an anti-V5 antibody (lower panel). In the figure, IGFBP-1, IGFBP-2, IGFBP-3, IGFBP-4, IGFBP-5, and IGFBP-6 are represented by BP1, BP2, BP3, BP4, BP5, and BP6, respectively.

Molecule ^125I-labelled IGFBP-4 has a Kd [1] of 25 nM.

B1: ^125I-labelled IGFBP-4 (other)
chain: DEAIHCPPCSEEKLARCRPPVGCEELVREPGCGCCATCALGLGMPCGVYTPRCGSGLRCYPPRGVEKPLHTLMHGQGVCMELAEIEAIQESLQPSDKDEGDHPNNSFSPCSAHDRRCLQKHFAKIRDRSTSGGKMKVNGAPREDARPVPQGSCQSELHRALERLAASQSRTHEDLYIIPIPNCDRNGNFHPKQCHPALDGQRGKCWCVDRKTGVKLPGGLEPKGELDCHQLADSFRE
With B1 the Kd [2] was 2.5 nM, the Kd [3] was 6.9 nM and the Kd [4] was 0.17 nM.

B2: IGFBP-3 (V5-tagged) (other, mouse, UniProt P47878 28-292, looked up)
chain: GAGAVGAGPVVRCEPCDARALSQCAPPPTAPACTELVREPGCGCCLTCALREGDACGVYTERCGTGLRCQPRPAEQYPLRALLNGRGFCANASAAGSLSTYLPSQPAPGNISESEEEHNAGSVESQVVPSTHRVTDSKFHPLHAKMDVIKKGHARDSQRYKVDYESQSTDTQNFSSESKRETEYGPCRREMEDTLNHLKFLNVLSPRGVHIPNCDKKGFYKKKQCRPSKGRKRGFCWCVDKYGQPLPGYDTKGKDDVHCLSVQSQ
notes: V5-tagged in the IP/western; not shown: V5 tag
B2: no binding [5].

B3: IGFBP-5 (V5-tagged) (other, mouse, UniProt Q07079 20-271, looked up)
chain: LGSFVHCEPCDEKALSMCPPSPLGCELVKEPGCGCCMTCALAEGQSCGVYTERCAQGLRCLPRQDEEKPLHALLHGRGVCLNEKSYGEQTKIERDSREHEEPTTSEMAEETYSPKVFRPKHTRISELKAEAVKKDRRKKLTQSKFVGGAENTAHPRVIPAPEMRQESEQGPCRRHMEASLQEFKASPRMVPRAVYLPNCDRKGFYKRKQCKPSRGRKRGICWCVDKYGMKLPGMEYVDGDFQCHAFDSSNVE
notes: as for B2
B3: no binding [5].
